# Bridge positions count the residues as written; N and C are the ends. Ends that are not written are not given here.
# T1: human IL-2Rβ (CD122 protein, Fc Tag) (27-239) (human, UniProt P14784 27-239)
# T1 construct: range 27-239; Bought protein; also called hu-IL-2Rβ subunit; IL-2Rβ subunit; not shown: Fc tag of the bought protein
# T1 sequence (looked up): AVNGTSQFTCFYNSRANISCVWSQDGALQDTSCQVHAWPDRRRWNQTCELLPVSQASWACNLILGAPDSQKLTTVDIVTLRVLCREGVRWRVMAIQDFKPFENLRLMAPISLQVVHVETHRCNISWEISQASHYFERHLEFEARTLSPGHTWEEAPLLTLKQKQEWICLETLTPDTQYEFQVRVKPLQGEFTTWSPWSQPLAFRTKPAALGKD
# B1: SEQ ID NO 2607 (peptide)
# peptide: IDRADGWKPCWIAQVGELCVLE
# B2: SEQ ID NO 2608 (peptide)
# peptide: YRRERVEFPCWLAQLGELCDKE
# B3: SEQ ID NO 2609 (peptide)
# peptide: AVSHGNWLPCYIAQLGELCDLD
# B4: SEQ ID NO 2610 (peptide)
# peptide: IPKGESWFPCWMAAMGELCDLE
# B5: SEQ ID NO 2611 (peptide)
# peptide: WYPCWIAQLGEVCDLEKQTGSV
# modifications: disulfide 4-13 (inferred)
# B6: SEQ ID NO 2612 (peptide)
# peptide: WYPCWMAHLGDVCDLESFGQTE
# B7: SEQ ID NO 2613 (peptide)
# peptide: YKPCQMAQLGELCDLDVDNKAE
# B8: SEQ ID NO 2614 (peptide)
# peptide: FKPCWIANLGELCDMDDERSSE
# B9: SEQ ID NO 2615 (peptide)
# peptide: WKPCWMARLGELCDIEDTKVNA
# B10: SEQ ID NO 2616 (peptide)
# peptide: SLPCWIARLGELCDLDGYDGEE
# B11: SEQ ID NO 2617 (peptide)
# peptide: FYPCWKARLGELCELEELRGYY
# B12: SEQ ID NO 2618 (peptide)
# peptide: WKPCWIADLGELCDLAPAWHEY
# B13: SEQ ID NO 2619 (peptide)
# peptide: RLPCWRAQLGDLCELDWGLDMG
# B14: SEQ ID NO 2620 (peptide)
# peptide: SKPCWMAQLGELCDLDVWNLQM
# B15: SEQ ID NO 2621 (peptide)
# peptide: GYPCWLAQLGDYCDLDAGAPSW
# B16: SEQ ID NO 2622 (peptide)
# peptide: SWPCWMAQLGDLCDLDGSAGAS
# B17: SEQ ID NO 2623 (peptide)
# peptide: WKPCWLAQLGELCDLERPSTTS
# B18: SEQ ID NO 2624 (peptide)
# peptide: WYSCGKAQLGELCDLDVESQPG
# B19: SEQ ID NO 2625 (peptide)
# peptide: YVPCYMARLGELCELEANRPGQ
# B20: SEQ ID NO 2626 (peptide)
# peptide: SKPCWLAQLGDLCDFDWTAADH
# B21: SEQ ID NO 2627 (peptide)
# peptide: WFPCWMAQLGDLCELEPDSVPA
# B22: SEQ ID NO 2628 (peptide)
# peptide: WTPCWIAHLGDLCDLEPQDDTD
# modifications: disulfide 4-13 (inferred)
# B23: SEQ ID NO 2629 (peptide)
# peptide: WKPCFIASLGELCDLDQGSVEV
# B24: SEQ ID NO 2630 (peptide)
# peptide: WKPCWMAALGELCDLERSVGKV
# B25: SEQ ID NO 2631 (peptide)
# peptide: WKPCWRAQLGELCDLELGPSER
# B26: SEQ ID NO 2632 (peptide)
# peptide: FFPCWMGQLGDLCDLEVRSMQK
# B27: SEQ ID NO 2633 (peptide)
# peptide: YWPCSMASLGELCDLEWQGRLP
# B28: SEQ ID NO 2634 (peptide)
# peptide: WYPCYMASLGELCDLQSSISPR
# B29: SEQ ID NO 2635 (peptide)
# peptide: WYPCWMAQLGELCDHEWPSYGA
# B30: SEQ ID NO 2636 (peptide)
# peptide: MGSWLPCWMAQLGDLCDVEGGM
# B31: SEQ ID NO 2637 (peptide)
# peptide: QKGFLPCWRAQLGQLCDMESQY
# B32: SEQ ID NO 2638 (peptide)
# peptide: GSGWQPCWMADLGELCDLDNEK
# B33: SEQ ID NO 2639 (peptide)
# peptide: WRRWYPCWMAQLGELCDLDQWT
# modifications: disulfide 7-16 (inferred)
# B34: SEQ ID NO 2640 (peptide)
# peptide: RRSWYPCRIAQLGELCDLDPRV
# modifications: disulfide 7-16 (inferred)
# B35: SEQ ID NO 2641 (peptide)
# peptide: AYRIYPCWKAQLGELCDLDNAD
# B36: SEQ ID NO 2642 (peptide)
# peptide: QRNSFPCWLAQLGDLCDLGDWA
# B37: SEQ ID NO 2643 (peptide)
# peptide: QPAWLPCWLAQLGELCDLGTGA
# B38: SEQ ID NO 2644 (peptide)
# peptide: SRFWQPCWMAQLGELCHLDPQM
# B39: SEQ ID NO 2645 (peptide)
# peptide: YLNFNPCWTAQLGELCDLASGE
# B40: SEQ ID NO 2646 (peptide)
# peptide: STGWYPCWIAEFGELCDLVKPH
# B41: SEQ ID NO 2647 (peptide)
# peptide: AHWSQPCWTAQLGELCDLDMGD
# modifications: disulfide 7-16 (inferred)
# B42: SEQ ID NO 2648 (peptide)
# peptide: HPVRYPCWVAQLGELCDLENGN
# B43: SEQ ID NO 2649 (peptide)
# peptide: QTGSYPCWIAHLGELCDLEGSA
# modifications: disulfide 7-16 (inferred)
# B44: SEQ ID NO 2650 (peptide)
# peptide: TGWWYPCWMAQLGELCDLQQT
# B45: SEQ ID NO 2651 (peptide)
# peptide: DLWQPCWMARLGELCDLKG
# B46: SEQ ID NO 2652 (peptide)
# peptide: MGTGWQNYCRYAQLGELCLL
# B47: SEQ ID NO 2653 (peptide)
# peptide: WYPCGVAQPGDLCDLE
# B48: SEQ ID NO 2654 (peptide)
# peptide: MLGEWLCEMDQLGYLCYLDHGD
# B49: SEQ ID NO 2655 (peptide)
# peptide: WDGWECGMDHDGWVCEFWGE
# B50: SEQ ID NO 2667 (peptide)
# peptide: WYPCWIAQLGELCDLDAKGQRR
# B51: SEQ ID NO 2668 (peptide)
# peptide: TNNFYPCWLAKLGDLCDFDDLN
# B52: SEQ ID NO 2669 (peptide)
# peptide: WYPCWIARVGELCDLEEGPVNR
# B53: SEQ ID NO 2670 (peptide)
# peptide: AVEFYPCWLARIGELCDLVEP
# B54: SEQ ID NO 2671 (peptide)
# peptide: WYPCWIAHLGELCDLE
# B55: SEQ ID NO 2699 (peptide)
# peptide: WYPCWLAHLGELCDLE
# B56: SEQ ID NO 2718 (peptide)
# peptide: WHPCWIAHLGELCDLE
# B57: SEQ ID NO 2725 (peptide)
# peptide: WYPCWLAHLGELCDLA
# B58: SEQ ID NO 2804 (peptide)
# peptide: WYPCWMAHLGELCDLE
# B59: SEQ ID NO 2672 (peptide)
# peptide: WYPCWIARVGELCDME
# B60: SEQ ID NO 2884 (peptide)
# peptide: WYPCWIARVGELCDLE
# B61: SEQ ID NO 2673 (peptide)
# peptide: RREWYPCWIAQVGELCDLPLI
# modifications: disulfide 7-16 (inferred)
# B62: SEQ ID NO 2674 (peptide)
# peptide: RWPWYPCEIARIGELCDLEQAN
# B63: SEQ ID NO 2675 (peptide)
# peptide: FGAFYPCWKAQLGELCDLEPVT
# Molecular target: T1, human IL-2Rβ (CD122 protein, Fc Tag) …
# Assay: phage ELISA competition
# Outline: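 In this competitive binding ELISA, test ligands compete with a phage tracer for human IL-2Rβ-Fc, and IC50 is calculated from the absorbance signal over the ligand dilution series. A 50 μL volume of phage tracer was added without washing and left for 45 min at 4° C. TMB was used to detect bound phage for 1 to 15 min at 25° C, after which stop solution was added and absorbance was read at 450 nm.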
row,Binder,IC50 [µM]
1,B1,< 100
2,B2,< 100
3,B3,< 100
4,B4,< 100
5,B5,< 100
6,B6,< 100
7,B7,< 100
8,B8,< 100
9,B9,< 100
10,B10,< 100
11,B11,< 100
12,B12,< 100
13,B13,< 100
14,B14,< 100
15,B15,< 100
16,B16,< 100
17,B17,< 100
18,B18,< 100
19,B19,< 100
20,B20,< 100
21,B21,< 100

row,Binder,IC50 [µM]
1,B22,< 100
2,B23,< 100
3,B24,< 100
4,B25,< 100
5,B26,< 100
6,B27,< 100
7,B28,< 100
8,B29,< 100
9,B30,< 100
10,B31,< 100
11,B32,< 100
12,B33,< 100
13,B34,< 100
14,B35,< 100
15,B36,< 100
16,B37,< 100
17,B38,< 100
18,B39,< 100
19,B40,< 100
20,B41,< 100
21,B42,< 100

row,Binder,IC50 [µM]
1,B43,< 100
2,B44,< 100
3,B45,< 100
4,B46,< 100
5,B47,< 100
6,B48,< 100
7,B49,< 100
8,B50,< 100
9,B51,< 100
10,B52,< 100
11,B53,< 100
12,B54,< 100
13,B55,< 100
14,B56,< 100
15,B57,< 100
16,B58,< 100
17,B59,< 100
18,B60,< 100
19,B61,< 100
20,B62,< 100
21,B63,< 100

# From patent publication US20220119492A1 (MEDIKINE, published 2022)
